According to paper PMC11549086 (2024):

Experiments:
[1] = target: T1, taxol-stabilized microtubules (tubulin) (Sus scrofa, UniProt P02550); test: TIRF microscopy, Hill fit (150 mM salt)
T1 chain 1: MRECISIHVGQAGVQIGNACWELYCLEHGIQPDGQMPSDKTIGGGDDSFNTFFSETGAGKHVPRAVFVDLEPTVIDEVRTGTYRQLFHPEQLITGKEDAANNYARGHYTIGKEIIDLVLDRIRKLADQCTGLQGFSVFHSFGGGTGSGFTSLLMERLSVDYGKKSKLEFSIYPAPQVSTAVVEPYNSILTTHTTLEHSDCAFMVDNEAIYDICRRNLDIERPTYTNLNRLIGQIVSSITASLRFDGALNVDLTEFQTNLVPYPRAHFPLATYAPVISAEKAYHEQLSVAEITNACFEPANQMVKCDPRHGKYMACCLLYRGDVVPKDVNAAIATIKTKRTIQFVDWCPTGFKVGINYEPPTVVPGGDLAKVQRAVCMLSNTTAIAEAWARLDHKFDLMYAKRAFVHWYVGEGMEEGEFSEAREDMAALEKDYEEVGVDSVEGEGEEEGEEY
T1 chain 2: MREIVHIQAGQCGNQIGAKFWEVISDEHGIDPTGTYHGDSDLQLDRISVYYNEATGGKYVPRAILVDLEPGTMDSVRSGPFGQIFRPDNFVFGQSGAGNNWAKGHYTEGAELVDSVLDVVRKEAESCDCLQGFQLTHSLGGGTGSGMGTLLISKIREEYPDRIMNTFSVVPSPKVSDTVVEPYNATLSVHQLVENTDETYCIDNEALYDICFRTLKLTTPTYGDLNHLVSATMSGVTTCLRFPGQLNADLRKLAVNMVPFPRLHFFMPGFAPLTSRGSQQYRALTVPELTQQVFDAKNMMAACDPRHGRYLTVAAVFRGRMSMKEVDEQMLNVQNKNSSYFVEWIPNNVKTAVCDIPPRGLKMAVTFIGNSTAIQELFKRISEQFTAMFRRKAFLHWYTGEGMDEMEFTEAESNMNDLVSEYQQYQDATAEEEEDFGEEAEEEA

[2] = target: T1, taxol-stabilized microtubules (tubulin); test: TIRF microscopy, Hill fit (no added salt)

B1: HURP 1-285 (protein)
chain: MSSSHFASRHRKDISTEMIRTKIAHRKSLSQKENRHKEYERNRHFGLKDVNIPTLEGRILVELDETSQGLVPEKTNVKPRAMKTILGDQRKQMLQKYKEEKQLQKLKEQREKAKRGIFKVGRYRPDMPCFLLSNQNAVKAEPKKAIPSSVRITRSKAKDQMEQTKIDNESDVRAIRPGPRQTSEKKVSDKEKKVVQPVMPTSLRMTRSATQAAKQVPRTVSSTTARKPVTRAANENEPEGKVPSKGRPAKNVETKPDKGISCKVDSEENTLNSQTNATSGMNPDG
modifications: C-terminal eGFP fusion, taxol-stabilized microtubules
- Kd [1]: ~300 nM
- Kd [2]: ~29 nM
